Test results as given in article PMC7439702.

Target: AbmU (Streptomyces koyangensis SCSIO 5802)
Assay: crystal structure

- stoichiometry N: 2
Substance: AbmU (enzyme)
